# Test results as given in PMC2774812 (Journal of molecular biology, 2009).
# Substitutions are numbered along the chain they refer to. Names and notes keep the numbering of the source.
# B1: brome mosaic virus (BMV) capsid protein, wild type (natural protein)
# chain: STSGTGKMTRAQRRAAARRNRWTARVQPVIVEPLAAGQGKAIKAIAGYSISKWEASSDAITAKATNAMSITLPHELSSEKNKELKVGRVLLWLGLLPSVAGRIKACVAEKQAQAEAAFQVALAVADSSKEVVAAMYTDAFRGATLGDLLNLQIYLYASEAVPAKAVVVHLEVEHVRPTFDDFFTPVYR
# B2: brome mosaic virus (BMV) capsid protein D148A (natural protein)
# chain: B1 chain with D147A
# B3: brome mosaic virus (BMV) capsid protein R142A (natural protein)
# chain: B1 chain with R141A
# Target: the molecule itself
row,Protein,binding result
1,B1,binds
2,B2,binds
3,B3,binds
